The text below walks through data of paper PMC5264652 (EBioMedicine, 2016).

To fix the notation:
B1: ClfA_(229–545) (domain or fragment)
chain: GTDITNQLTNVTVGIDSGTTVYPHQAGYVKLNYGFSVPNSAVKGDTFKITVPKELNLNGVTSTAKVPPIMAGDQVLANGVIDSDGNVIYTFTDYVNTKDDVKATLTMPAYIDPENVKKTGNVTLATGIGSTTANKTVLVDYEKYGKFYNLSIKGTIDQIDKTNNTYRQTIYVNPSGDNVIAPVLTGNLKPNTDSNALIDQQNTSIKVYKVDNAADLSESYFVNPENFEDVTNSVNITFPNPNQYKVEFNTPDDQITTPYIVVVNGHIDPNSKGDLALRSTLYGYNSNIIWRSMSWDNEVAFNNGSGSGDGIDKPVVP
B5: Human fibrinogen (complex)
chain 1: ADSGEGDFLAEGGGVRGPRVVERHQSACKDSDWPFCSDEDWNYKCPSGCRMKGLIDEVNQDFTNRINKLKNSLFEYQKNNKDSHSLTTNIMEILRGDFSSANNRDNTYNRVSEDLRSRIEVLKRKVIEKVQHIQLLQKNVRAQLVDMKRLEVDIDIKIRSCRGSCSRALAREVDLKDYEDQQKQLEQVIAKDLLPSRDRQHLPLIKMKPVPDLVPGNFKSQLQKVPPEWKALTDMPQMRMELERPGGNEITRGGSTSYGTGSETESPRNPSSAGSWNSGSSGPGSTGNRNPGSSGTGGTATWKPGSSGPGSTGSWNSGSSGTGSTGNQNPGSPRPGSTGTWNPGSSERGSAGHWTSESSVSGSTGQWHSESGSFRPDSPGSGNARPNNPDWGTFEEVSGNVSPGTRREYHTEKLVTSKGDKELRTGKEKVTSGSTTTTRRSCSKTVTKTVIGPDGHKEVTKEVVTSEDGSDCPEAMDLGTLSGIGTLDGFRHRHPDEAAFFDTASTGKTFPGFFSPMLGEFVSETESRGSESGIFTNTKESSSHHPGIAEFPSRGKSSSYSKQFTSSTSYNRGDSTFESKSYKMADEAGSEADHEGTHSTKRGHAKSRPVRGIHTSPLGKPSLSP
chain 2: QGVNDNEEGFFSARGHRPLDKKREEAPSLRPAPPPISGGGYRARPAKAAATQKKVERKAPDAGGCLHADPDLGVLCPTGCQLQEALLQQERPIRNSVDELNNNVEAVSQTSSSSFQYMYLLKDLWQKRQKQVKDNENVVNEYSSELEKHQLYIDETVNSNIPTNLRVLRSILENLRSKIQKLESDVSAQMEYCRTPCTVSCNIPVVSGKECEEIIRKGGETSEMYLIQPDSSVKPYRVYCDMNTENGGWTVIQNRQDGSVDFGRKWDPYKQGFGNVATNTDGKNYCGLPGEYWLGNDKISQLTRMGPTELLIEMEDWKGDKVKAHYGGFTVQNEANKYQISVNKYRGTAGNALMDGASQLMGENRTMTIHNGMFFSTYDRDNDGWLTSDPRKQCSKEDGGGWWYNRCHAANPNGRYYWGGQYTWDMAKHGTDDGVVWMNWKGSWYSMRKMSMKIRPFFPQQ
chain 3: YVATRDNCCILDERFGSYCPTTCGIADFLSTYQTKVDKDLQSLEDILHQVENKTSEVKQLIKAIQLTYNPDESSKPNMIDAATLKSRKMLEEIMKYEASILTHDSSIRYLQEIYNSNNQKIVNLKEKVAQLEAQCQEPCKDTVQIHDITGKDCQDIANKGAKQSGLYFIKPLKANQQFLVYCEIDGSGNGWTVFQKRLDGSVDFKKNWIQYKEGFGHLSPTGTTEFWLGNEKIHLISTQSAIPYALRVELEDWNGRTSTADYAMFKVGPEADKYRLTYAYFAGGDAGDAFDGFDFGDDPSDKFFTSHNGMQFSTWDNDNDKFEGNCAEQDGSGWWMNKCHAGHLNGVYYQGGTYSKASTPNGYDNGIIWATWKTRWYSMKKTTMKIIPFNRLTIGEGQQHHLGGAKQAGDV

Where “and” joins values, the source holds several entries; their conditions need not be identical. Equal values may be shown once. Read-outs that look alike come from different tables or passages of the source.

What all share (assay): SPR
For one experiment, the target named is GST-tagged Fg γ peptide.
Experiment [1] concerns the target B5.
Experiment [2] concerns the target T1, Fibrinogen D-fragment (UniProt P02671;P02675;P02679-2).
T1 sequence 1: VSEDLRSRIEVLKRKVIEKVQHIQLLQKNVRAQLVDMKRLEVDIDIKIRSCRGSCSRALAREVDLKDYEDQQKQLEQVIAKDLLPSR
T1 sequence 2: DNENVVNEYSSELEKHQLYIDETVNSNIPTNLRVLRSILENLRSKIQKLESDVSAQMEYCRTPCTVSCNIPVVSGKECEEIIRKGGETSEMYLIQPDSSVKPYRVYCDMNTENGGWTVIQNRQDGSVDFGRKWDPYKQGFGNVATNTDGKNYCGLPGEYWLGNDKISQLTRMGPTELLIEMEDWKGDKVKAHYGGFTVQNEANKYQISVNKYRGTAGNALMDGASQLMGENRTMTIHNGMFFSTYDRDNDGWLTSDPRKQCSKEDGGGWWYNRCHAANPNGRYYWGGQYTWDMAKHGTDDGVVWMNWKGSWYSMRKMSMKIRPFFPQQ
T1 sequence 3: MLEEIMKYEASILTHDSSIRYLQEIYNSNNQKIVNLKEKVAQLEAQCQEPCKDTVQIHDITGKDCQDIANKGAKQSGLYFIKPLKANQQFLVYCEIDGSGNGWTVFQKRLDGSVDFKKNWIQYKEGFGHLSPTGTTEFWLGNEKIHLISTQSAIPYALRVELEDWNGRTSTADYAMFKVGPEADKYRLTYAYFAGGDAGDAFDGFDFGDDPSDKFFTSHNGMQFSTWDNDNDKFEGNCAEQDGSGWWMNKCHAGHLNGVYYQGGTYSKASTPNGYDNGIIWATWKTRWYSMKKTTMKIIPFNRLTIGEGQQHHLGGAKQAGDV

The target in experiment [3] is B5. The source holds these as a separate data set.
Experiment [4] concerns the target T1, Fibrinogen D-fragment. The source holds these as a separate data set.
Experiment [5] deals with ClfA_(229–545) (S. aureus strain Newman, UniProt Q53653).
For experiment [6], the target named is B1.

“ClfA N3 (ClfA_(370–559)) (from UniProt Q53653 370-559) (domain or fragment)” yielded a fold lower affinity against intact Fg or Fg D-fragment in the experiment with GST-tagged Fg γ peptide of 10 fold. In the case of “ClfA_(229–545) (from UniProt Q53653 229-545) (domain or fragment)”, the fold difference in KD against Fg or Fg D-fragment with GST-tagged Fg γ peptide amounted to 50 fold. For B1, the dissociation constant (Kd) with Human fibrinogen [1] was 610 nM and 660 nM.

B2: ClfAPWY (domain or fragment)
chain: VAADAPAAGTDITNQLTNVTVGIDSGTTVYPHQAGYVKLNYGFSVPNSAVKGDTFKITVPKELNLNGVTSTAKVPPIMAGDQVLANGVIDSDGNVIYTFTDYVNTKDDVKATLTMPAYIDPENVKKTGNVTLATGIGSTTANKTVLVDYEKYGKFYNLSIKGTIDQIDKTNNTYRQTIYVNPSGDNVIAPVLTGNLKPNTDSNALIDQQNTSIKVYKVDNAADLSESYFVNPENFEDVTNSVNITFANPNQYKVEFNTPDDQITTPYIVVVNGHIDPNSKGDLALRSTLYGANSNIIARSMSWDNEVAFNNGSGSGDGIDKPVVPEQPDEPGEIEPIPE
For the molecule B2, the values for the Kd in the experiment with Fibrinogen D-fragment [2] and with Human fibrinogen [3] were 17000 nM and 10000 nM, respectively.

B3: ClfA N3 (ClfA_(370–559)) (domain or fragment)
chain: EKYGKFYNLSIKGTIDQIDKTNNTYRQTIYVNPSGDNVIAPVLTGNLKPNTDSNALIDQQNTSIKVYKVDNAADLSESYFVNPENFEDVTNSVNITFPNPNQYKVEFNTPDDQITTPYIVVVNGHIDPNSKGDLALRSTLYGYNSNIIWRSMSWDNEVAFNNGSGSGDGIDKPVVPEQPDEPGEIEPIPE
As for B3, the “fold of KD against ClfA229-545 on the same protein” value in the experiment with Fibrinogen D-fragment [4] and with Human fibrinogen [1] was approximately 10 fold throughout.

B4: tefibazumab (antibody, V domains shown)
VH: QVQLKESGPGLVKPSQTLSITCTISGFSLSRYSVHWVRQPPGKGLEWLGMIWGGGNTDYNSALKSRLSISKDNSKNQVFLKMNSLTAADTAVYYCARKGEFYYGYDGFVYWGQGTLVTVSS
VL: DIVMTQSPDSLAVSLGERVTMNCKSSQSVLYSSNQKNYLAWYQQKPGQSPKLLIYWASTRESGVPDRFSGSGSGTDFTLTISSVQAEDLAVYYCHQYLSSYTFGGGTKLEIK
On to B4, for which, in the experiment with ClfA_(229–545) [5], the IC50 is 330 nM and 390 nM; the equilibrium dissociation constant (Kd) is 0.79 nM and 0.81 nM and 0.7 nM; the off-rate constant (koff) turned out to be 0.00049 s⁻¹; the kon came out at 594000 M⁻¹ s⁻¹. Take B5: the IC50 in the experiment with ClfA_(229–545) [6] is 430 nM and 480 nM.
